Data as given in patent US20250000976A1 (NATIONAL RESEARCH COUNCIL OF CANADA, published 2025).

T1: BCMA_B2x Gly6_Ala54 (human, UniProt Q02223)
T1 construct: limits given in the sample name
T1 yeast-displayed fusion (looked up): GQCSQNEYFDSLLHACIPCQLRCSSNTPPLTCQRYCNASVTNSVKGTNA

T2: BCMA_B9x Met1_Asp15 (human, UniProt Q02223)
T2 construct: limits given in the sample name
T2 yeast-displayed fusion (looked up): MLQMAGQCSQNEYFD

T3: BCMA_B3x Ile22_Ala54 (human, UniProt Q02223)
T3 construct: limits given in the sample name
T3 yeast-displayed fusion (looked up): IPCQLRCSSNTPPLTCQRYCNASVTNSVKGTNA

T4: BCMA_B10x Gly6_Ala43 (human, UniProt Q02223)
T4 construct: limits given in the sample name
T4 yeast-displayed fusion (looked up): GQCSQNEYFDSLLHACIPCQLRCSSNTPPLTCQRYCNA

T5: BCMA_B14x Gly6_Pro23 (C21S) (human, UniProt Q02223)
T5 construct: limits and substitution as printed in the sample name
T5 yeast-displayed fusion (looked up): GQCSQNEYFDSLLHASIP

T6: full-length hBCMA-ECD displayed on yeast (Aga2-HA-(hBCMA)-MYC) (human, UniProt Q02223 1-54)
T6 construct: range 1-54; stands here as the molecule on which the mapped regions are counted; also called hBCMA ecto-domain (ECD); not shown: Aga2-HA N-terminal fusion partner of the pPNL6 yeast display vector; C-terminal MYC tag
T6 sequence (looked up): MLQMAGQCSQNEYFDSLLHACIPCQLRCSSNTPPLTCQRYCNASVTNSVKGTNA

T7: BCMA_B16x Ile22_Ala43 (C41S) (human, UniProt Q02223)
T7 construct: limits and substitution as printed in the sample name
T7 yeast-displayed fusion (looked up): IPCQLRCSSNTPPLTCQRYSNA

T8: BCMA_B17x Ile22_Tyr40 (human, UniProt Q02223)
T8 construct: limits given in the sample name
T8 yeast-displayed fusion (looked up): IPCQLRCSSNTPPLTCQRY

T9: BCMA_B22x Arg27_Tyr40 (C37S) (human, UniProt Q02223)
T9 construct: limits and substitution as printed in the sample name
T9 yeast-displayed fusion (looked up): RCSSNTPPLTSQRY

T10: BCMA_B4x Arg27_Ala54 (human, UniProt Q02223)
T10 construct: limits given in the sample name
T10 yeast-displayed fusion (looked up): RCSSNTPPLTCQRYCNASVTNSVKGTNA

T11: BCMA_B21x Arg27_Tyr40 (human, UniProt Q02223)
T11 construct: limits given in the sample name
T11 yeast-displayed fusion (looked up): RCSSNTPPLTCQRY

T12: BCMA_B20x Arg27_Ala43 (C41S) (human, UniProt Q02223)
T12 construct: limits and substitution as printed in the sample name
T12 yeast-displayed fusion (looked up): RCSSNTPPLTCQRYSNA

T13: BCMA_B5x Gln38_Ala54 (human, UniProt Q02223)
T13 construct: limits given in the sample name
T13 yeast-displayed fusion (looked up): QRYCNASVTNSVKGTNA

T14: BCMA_B8x Met1_Pro23 (human, UniProt Q02223)
T14 construct: limits given in the sample name
T14 yeast-displayed fusion (looked up): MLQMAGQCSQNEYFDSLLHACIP

T15: hBCMA-ECD-FC5VHH (human, UniProt Q02223 1-54, biotinylated in vivo ; biotinylated in vivo on the tag of the carrier part, which is not in the letters)
T15 construct: Made in HEK-293 cells, monomeric SEC fraction; The methods say about 500 RU captured on an SA chip; the results say immobilised on a CM5 chip; also called hBCMA-FC5; human BCMA-ECD; not shown: FC5 VHH carrier, any linker, and the His and biotinylation tags
T15 sequence: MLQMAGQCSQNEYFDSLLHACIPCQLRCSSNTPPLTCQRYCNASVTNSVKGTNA

T16: BCMA_B15x Ile22_Ala43 (human, UniProt Q02223)
T16 construct: limits given in the sample name
T16 yeast-displayed fusion (looked up): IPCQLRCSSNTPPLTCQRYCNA


Columns and labels:
[1] = target: T1, BCMA_B2x Gly6_Ala54; assay: yeast cell ELISA, sample BCMA_B2x Gly6_Ala54
Procedure: (§1) The YSD vector (pPNL6) was from The Pacific Northwest National Laboratory, USA. […] The HRP activity was assayed with substrate TMB (tetramethyl benzidine) according to the manufacture's conditions and read at OD₄₅₀.
(§2) The assays were performed as described in the Materials and Method, and OD₄₅₀ was measured. Note that OD₄₅₀ reads equal or less than 0.100 were scored as zero for clarity.

[2] = target: T2, BCMA_B9x Met1_Asp15; assay: yeast cell ELISA, sample BCMA_B9x Met1_Asp15
Procedure: as §1, §2

[3] = target: T3, BCMA_B3x Ile22_Ala54; assay: yeast cell ELISA, sample BCMA_B3x Ile22_Ala54
Procedure: as §1, §2

[4] = target: T4, BCMA_B10x Gly6_Ala43; assay: yeast cell ELISA, sample BCMA_B10x Gly6_Ala43
Procedure: as §1, §2

[5] = target: T5, BCMA_B14x Gly6_Pro23 (C21S); assay: yeast cell ELISA, sample BCMA_B14x Gly6_Pro23 (C21S)
Procedure: as §1, §2

[6] = target: T6, full-length hBCMA-ECD displayed on …; assay: yeast cell ELISA, sample BCMA_B1x Met1_Ala54
Procedure: as §1, §2

[7] = target: T7, BCMA_B16x Ile22_Ala43 (C41S); assay: yeast cell ELISA, sample BCMA_B16x Ile22_Ala43 (C41S)
Procedure: as §1, §2

[8] = target: T8, BCMA_B17x Ile22_Tyr40; assay: yeast cell ELISA, sample BCMA_B17x Ile22_Tyr40
Procedure: as §1, §2

[9] = target: T9, BCMA_B22x Arg27_Tyr40 (C37S); assay: yeast cell ELISA, sample BCMA_B22x Arg27_Tyr40 (C37S)
Procedure: as §1, §2

[10] = target: T10, BCMA_B4x Arg27_Ala54; assay: yeast cell ELISA, sample BCMA_B4x Arg27_Ala54
Procedure: as §1, §2

[11] = target: T11, BCMA_B21x Arg27_Tyr40; assay: yeast cell ELISA, sample BCMA_B21x Arg27_Tyr40
Procedure: as §1, §2

[12] = target: T12, BCMA_B20x Arg27_Ala43 (C41S); assay: yeast cell ELISA, sample BCMA_B20x Arg27_Ala43 (C41S)
Procedure: as §1, §2

[13] = target: T13, BCMA_B5x Gln38_Ala54; assay: yeast cell ELISA, sample BCMA_B5x Gln38_Ala54
Procedure: as §1, §2

[14] = target: T14, BCMA_B8x Met1_Pro23; assay: yeast cell ELISA, sample BCMA_B8x Met1_Pro23
Procedure: as §1, §2

[15] = target: T15, hBCMA-ECD-FC5VHH; assay: SPR (Biacore T200), VHH 20-500 nM over BCMA-ECD surface, 25 C
Procedure: For surface Plasmon resonance, 15 selected VHHs were passed though size exclusion columns, Superdex 75 (GE Healthcare), respectively, in 10 mM HEPES, pH 7.4, containing 150 mM NaCl, 3 mM EDTA, monomeric sdAb fractions were collected and protein concentrations were determined by measuring absorbance at 280 nm (A280). Analysis were performed with Biacore T200 instrument (GE Healthcare). All measurements were carried out at 25° C. in 10 mM HEPES, pH 7.4, containing 150 mM NaCl, 3 mM EDTA and 0.005% surfactant P20 (GE Healthcare). Approximately 500 RUs of the recombinant monomeric BCMA-ECD (obtained after SEC purification of the BCMA-ECD-FC5VHH) were captured on SA sensor chip (GE Healthcare) at a flow rate of 5 uL/min. Various concentration of the monomeric VHHs (20-500 nM) were injected over BCMA-ECD surface, respectively using an SA surface as a reference at a flow rate of 40 μL/min. Surfaces were generated by washing with running buffer. Data were analysed with BIAevaluation 4.1 software.
The monomeric fraction of all 15 VHHs were used for SPR experiment where the human BCMA-ECD or mouse BCMA was immobilized onto the CM5 dextran chip and various VHH concentration (20-500 nM) were passed over the sensor chip.

[16] = target: T16, BCMA_B15x Ile22_Ala43; assay: yeast cell ELISA, sample BCMA_B15x Ile22_Ala43
Procedure: as §1, §2

| OD450 [1] | binding result [2] | binding result [3] | OD450 [4] | binding result [5] | OD450 [6] | binding result [7] | binding result [8] | binding result [9] | binding result [10] | binding result [11] | binding result [12] | binding result [13] | OD450 [14] | Kd [15] [nM] | koff [15] [s⁻¹] | kon [15] [M⁻¹ s⁻¹] | binding result [16] | binding result [14] | Binder |
| --- | --- | --- | --- | --- | --- | --- | --- | --- | --- | --- | --- | --- | --- | --- | --- | --- | --- | --- | --- |
| 2.53 | no binding | no binding | 2.69 | no binding | 3.09 | no binding | no binding | no binding | no binding | no binding | no binding | no binding | 2.09 | 0.564 | 0.000239 | 424000 | no binding |  | hBCMA-VcMRo3 (V3) (VHH, single biotin on the C-terminal AviTag, also called hBCMA-V3; not shown: C-terminal His tag and AviTag biotinylation signal from pMRO vector) VHH: EVQLEQSGGGLVQTGDSLRLTCTIPGRASNHFVMAWFRRAPGKEREFVATRVWSGGSPYYSDSVKGRFAIAIDNAKNTAYLQMNSLKPEDTAVYYCAATKDIMSRSYDYWGLGTQVTVSS |
| 2.92 | no binding | no binding | 1.8 | no binding | 2.52 | no binding | no binding | no binding | no binding | no binding | no binding | no binding | 2.45 | 0.0462 | 0.000179 | 3.88e+06 | no binding |  | hBCMA-E7 (VHH, single biotin on the C-terminal AviTag, Llama VHH made in E. coli BL21(DE3), IMAC purified, monomeric SEC fraction used; also called VHH-E7; VHH # 1-B1; not shown: C-terminal His tag and AviTag biotinylation signal from pMRO vector) VHH: QVQLVESGGGLVQTGDSLRLACTISGRATDHFVMAWFRRAPGKEREYVATRVWSGGSPYYLDSVKGRFAIAIDNAKNTAYLQMNNLKPEDTAVYYCAATKDIMSRSYDYWGLGTQVTVSS |
| 2.74 | no binding | no binding | 2.32 | no binding | 2.45 | no binding | no binding | no binding | no binding | no binding | no binding | no binding |  | 0.0846 | 0.00125 | 1.48e+07 | no binding | no binding | hBCMA-VcMRo8(VF7/VF8) (VHH, single biotin on the C-terminal AviTag, also called V8; hBCMA-V8; not shown: C-terminal His tag and AviTag biotinylation signal from pMRO vector) VHH: QVQLVESGGGLVQPGGSLRLSCAASGTIFSRNALAWFRQAPGKQRELVAHITIGGTTVYKDSVKGRFTISRDNAKNTVYLQMDALKPEDTAVYYCNADPEGSWNWVRRGDYWGQGTQVTVS |
